According to patent US20130344070A1 (SORRENTO THERAPEUTICS, published 2013):
Substitutions are numbered along the chain they refer to.

Legend:
[1] = target: T1, human CCR2 (CC-Chemokine Receptor 2) (human, UniProt P41597 1-374); experiment: cell-based or functional assay
[2] = target: T2, murine CCR2 (murine, UniProt P51683 1-373); experiment: cell-based or functional assay
[3] = target: T1, human CCR2 (CC-Chemokine Receptor 2); experiment: cell-based or functional assay; remark: listed apart in the source
[4] = target: T1, human CCR2 (CC-Chemokine Receptor 2); experiment: cell-based or functional assay; remark: listed apart in the source
[5] = target: T1, human CCR2 (CC-Chemokine Receptor 2); experiment: cell-based or functional assay; remark: listed apart in the source
[6] = target: T2, murine CCR2; experiment: cell-based or functional assay; remark: listed apart in the source
[7] = target: T1, human CCR2 (CC-Chemokine Receptor 2); experiment: flow cytometry on CHO-CCR2 cells (FIG. 1)
Procedure: (§1) The data in FIG. 1 illustrates in vitro data for cellular binding EC₅₀ measurements. […] In this example, CHO-CCR2 cells were lifted from culture flasks using non-enzymatic Cell Dissociation Buffer—PBS based (Life Technologies #13151-014). Cells were resuspended in FACS Buffer (2% Fetal Bovine Serum in PBS) at 1×10⁶ cells/ml and 100 μl (1×10⁵ cells) were aliquoted into the wells of a 96-well plate. Plated cells were spun down and the supernatant discarded. Cells were resuspended in 50 μl FACS Buffer containing the indicated concentrations of CCR2 D1 IgG in triplicate (FIG. 1). Plates were incubated for 1 hr at 4° C., then washed 1× with FACS Buffer. Cells were resuspended in 50 μl goat anti-human IgG (γ-chain specific)-PE conjugated secondary antibody (Southern Biotech #2040-09) diluted 1:500 in FACS Buffer. Cells were further incubated for 30 min at 4° C. and then washed 1× with FACS Buffer. The cells were resuspended in a final volume of 25 μl FACS Buffer and analyzed using the Intellicyt Flow Cytometer. Median fluorescence in the FL-2H channel was determined using FlowJo software and EC₅₀ value was determined by plotting the data in GraphPad Prism and analyzing using a variable slope non-linear regression.

[8] = target: T2, murine CCR2; experiment: flow cytometry on murine CCR2-expressing cells (FIG. 2)
[9] = target: T1, human CCR2 (CC-Chemokine Receptor 2); experiment: flow cytometry on CHO-huCCR2 cells, PE anti-human IgG
Procedure: as §1

[10] = target: T2, murine CCR2; experiment: flow cytometry on WEHI 274.1 cells (murine CCR2), PE anti-human IgG
Procedure: In this example, WEHI 274.1 cells were resuspended in FACS Buffer (2% Fetal Bovine Serum in PBS) at 1×10⁶ cells and […] of cell suspension was aliquoted into the wells of a 96-well plate. Plated cells were spun down and the supernatant discarded. Cells were resuspended in 30 μl FACS Buffer containing serially diluted anti-CCR2 IgGs in triplicate. Plates were incubated for 1 hr at 4° C., then washed 2× with FACS Buffer. Cells were resuspended in 50 μl goat anti-human IgG (γ-chain specific)-PE conjugated secondary antibody (Southern Biotech #2040-09) diluted 1:500 in FACS Buffer, incubated for 30 min at 4° C. and then washed 1× with FACS Buffer. The cells were resuspended in a final volume of 30 μl FACS Buffer and analyzed using the Intellicyt Flow Cytometer. Median fluorescence in the FL-2H channel was determined using FlowJo software and EC₅₀ values were determined by plotting the data in GraphPad Prism and analyzed using a variable slope non-linear regression.

T1 sequence (P41597 whole entry): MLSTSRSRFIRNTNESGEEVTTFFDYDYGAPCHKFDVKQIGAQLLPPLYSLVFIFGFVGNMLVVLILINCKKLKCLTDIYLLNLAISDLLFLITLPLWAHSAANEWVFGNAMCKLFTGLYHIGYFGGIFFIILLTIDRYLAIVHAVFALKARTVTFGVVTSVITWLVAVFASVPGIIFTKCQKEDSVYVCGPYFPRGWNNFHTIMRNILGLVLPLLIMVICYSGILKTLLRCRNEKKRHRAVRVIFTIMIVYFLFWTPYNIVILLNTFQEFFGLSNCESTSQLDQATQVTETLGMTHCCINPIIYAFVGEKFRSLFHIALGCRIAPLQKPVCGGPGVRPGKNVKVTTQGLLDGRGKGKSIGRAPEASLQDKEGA
T2 sequence (P51683 whole entry): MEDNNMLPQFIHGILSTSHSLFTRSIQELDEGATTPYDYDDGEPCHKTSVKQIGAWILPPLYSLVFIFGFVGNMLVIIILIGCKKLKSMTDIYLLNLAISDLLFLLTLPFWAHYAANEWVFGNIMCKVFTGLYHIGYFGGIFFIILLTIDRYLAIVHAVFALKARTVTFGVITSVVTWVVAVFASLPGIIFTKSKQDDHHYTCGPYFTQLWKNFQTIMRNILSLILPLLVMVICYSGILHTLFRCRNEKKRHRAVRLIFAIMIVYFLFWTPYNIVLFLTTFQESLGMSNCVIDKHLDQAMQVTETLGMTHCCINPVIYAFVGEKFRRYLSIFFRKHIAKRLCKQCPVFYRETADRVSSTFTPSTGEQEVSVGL

B1: D1 (antibody, human IgG1, V domains shown)
VH: EVQLVQSGAEVKKPGASVKVSCKASGYTFTGYHMHWVRQAPGQGLEWMGWINPNSGVTKYAQKFQGRVTMTRDTSINTAYMELSRLRFDDTDVYYCATGGFGYWGEGTLVTVSS
VL: LPVLTQPPSVSKGLRQTATLTCTGNSNNVGNQGAAWLQQHQGQPPKLLSYRNHNRPSGVSERFSPSRSGDTSSLTITGLQPEDEADYYCLAWDSSLRAFVFGTGTKLTVL
notes: also called CCR2 D1 IgG; anti-CCR2 D1 antibody
For B1, the “IC50 of D1 on MCP-1 (1 nM) induced primary human monocyte migration, another donor” value [1] was 3480 pM, the “IC50 of D1 on MCP-1 (1 nM) induced primary human monocyte migration, first donor” value [1] was 1020 pM and the “IC50 of D1 on MCP-1 (3 nM) induced THP-1 cell migration” value [1] was 194 pM. The “IC50 of D1 on MCP-1 (10 nM) induced THP-1 calcium mobilization” value [1] was 4700 pM, the “IC50 of D1 on MCP-1 (10 nM) induced primary human monocyte calcium mobilization” value [1] was 2800 pM and the “IC50 of D1 on mMCP-1 induced WEHI 274.1 cell migration” value [2] was 66000 pM. For the same binder, the “IC50 on MCP-1 induced THP-1 cell migration” value [3] was 168 pM, the “IC50 on MCP-2 induced THP-1 cell migration” value [3] was 172 pM and the “IC50 on MCP-3 induced THP-1 cell migration” value [3] was 854 pM. For the same binder, the “IC50 on MCP-4 induced THP-1 cell migration” value [3] was 138 pM, the “IC50 on mouse MCP-5 induced THP-1 cell migration” value [3] was 190 pM and the “IC50 in chemotaxis assay using human THP-1 cells, ligand MCP-1 (3 nM)” value [4] was 170 pM. For the same binder, the “IC50 in chemotaxis assay using human THP-1 cells, ligand MCP-2 (6.7 nM)” value [4] was 170 pM, the “IC50 in chemotaxis assay using human THP-1 cells, ligand MCP-3 (1.1 nM)” value [4] was 110 pM and the “IC50 in chemotaxis assay using human THP-1 cells, ligand MCP-4 (35 nM)” value [4] was 140 pM. The “IC50 in chemotaxis assay using human THP-1 cells, ligand MCP-5 (0.65 nM)” value [4] was 190 pM, the “IC50 in calcium flux assay using human THP-1 cells, ligand MCP-1 (2.5 nM)” value [5] was 180 pM and the “IC50 in calcium flux assay using human THP-1 cells, ligand MCP-3 (22 nM)” value [5] was 190 pM. The “IC50 in calcium flux assay using human THP-1 cells, ligand MCP-5 (0.43 nM)” value [5] was 280 pM, the “IC50 in chemotaxis assay using mouse WEHI cells, ligand mouse MCP-1 (0.7 nM)” value [6] was 62 pM and the EC50 [7] was 168 pM. For the same binder, the EC50 [8] was ~17000 pM, the EC50 [9] was 170 pM and the EC50 [10] was 1500 pM.

B2: D1-1/45H8L1 (antibody, V domains shown)
VH: B1 VH with E1Q, H33Y, I76T, N77S, A79V, R85S, F88S, D89E, D92A
VL: B1 VL with L1Q, P2A
notes: also called D1H1/45H8L1; D1-1B
For B2, the “IC50 in chemotaxis assay using human THP-1 cells, ligand MCP-1 (3 nM)” value [4] was 280 pM, the “IC50 in chemotaxis assay using human THP-1 cells, ligand MCP-4 (35 nM)” value [4] was 80 pM and the “IC50 in calcium flux assay using human THP-1 cells, ligand MCP-1 (2.5 nM)” value [5] was 370 pM. For the same binder, the “IC50 in calcium flux assay using human THP-1 cells, ligand MCP-3 (22 nM)” value [5] was 190 pM, the “IC50 in calcium flux assay using human THP-1 cells, ligand MCP-5 (0.43 nM)” value [5] was 270 pM and the “IC50 in chemotaxis assay using mouse WEHI cells, ligand mouse MCP-1 (0.7 nM)” value [6] was 12 pM. The EC50 [9] was 150 pM and the EC50 [10] was 2000 pM.
